Values of other authors in paper PMC4618378.
pKi: −log10 of the molar value.

Key:
[1] = molecular target: cone PDE6 gamma-subunit (Homo sapiens) (UniProt Q13956)
[2] = molecular target: rod PDE6 gamma-subunit (Homo sapiens) (UniProt P18545)
UniProt P18545, sequence (P18545 whole entry): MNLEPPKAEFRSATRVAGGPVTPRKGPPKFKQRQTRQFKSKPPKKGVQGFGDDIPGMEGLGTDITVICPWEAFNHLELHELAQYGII

UniProt Q13956, sequence (Q13956 whole entry): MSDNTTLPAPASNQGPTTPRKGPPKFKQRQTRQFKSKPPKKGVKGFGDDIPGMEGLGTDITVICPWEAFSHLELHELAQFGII

pKi [1]: 10.11 | pKi [2]: 9.81
Substance: PDE6C (from UniProt P51160)
